How the values were obtained:
Har = biological target: T1, Har (Streptococcus pneumoniae, UniProt A0A0H2ZMK9); experiment: X-ray crystal structure, […] Å; type: binding; conditions: tag-cleaved Har; 2.4 M sodium malonate pH 7.0, 20 °C
T1 construct: gene SPD_1415; full length, 438 residues; E. coli BL21(DE3), pET28a; N-terminal 6-His tag kept for kinetics, cut by HRV-3C for crystals (4-residue scar); motif CXXXXC (C43, C48), K13, K16, H425, E430

N#CSO = experiment: purified protein; conditions: 200 μM NADH, 10 nM 6-His-tagged Har, 100 mM sodium phosphate pH 7, 25 °C, HOSCN 1-50 μM
[1] = biological target: hypothiocyanous acid reductase (Har) (Streptococcus pneumoniae); experiment: AUC; sedimentation velocity; Har at 2 uM and 20 uM in 20 mM Tris-HCl pH 8.0, 150 mM NaCl; 50,000 rpm, 20 °C; 2DSA and genetic algorithm analysis in UltraScan 4.0

Cc1cc2nc3c(=O)[nH]c(=O)nc-3n(C[C@H](O)[C@H](O)[C@H](O)COP(=O)(O)OP(=O)(O)OC[C@H]3O[C@@H](n4cnc5c(N)ncnc54)[C@H](O)[C@@H]3O)c2cc1C [FAD]
X-ray crystal structure, 1.50 Å (Har): first crystal structure of full-length Har

Har (Streptococcus pneumoniae D39)
Km (N#CSO): 3.8 ± 0.3 µM | kcat (N#CSO): 440 ± 10 s⁻¹

hypothiocyanous acid reductase (Har) (enzyme)
stoichiometry N [1]: 2
